Measured values published in the supplement of paper PMC10724198.
± gives the standard deviation of the averaged measurements.

Test system: Saccharomyces cerevisiae
Test: protein stability index of tFT-peptide fusion (C-terminal peptide) (PSI (0-1 scale)); higher = more stable (slower turnover)
Conditions: temperature: 30 C
Method: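 MPS profiling in S. cerevisiae of the yeast C-terminome library: the last 12 aa of each annotated ORF are fused to the C-terminus of a sfGFP-mCherry timer, after a GGGS linker. Cells are FACS-sorted into 8 mCherry/sfGFP bins and deep-sequenced. PSI runs from 0 (unstable) to 1 (stable); wild type and das1Δ backgrounds, two technical replicates each.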

[1] = genetic background: das1 deletion

Sequence | protein stability index [1] | protein stability index (genetic background: wild type)
APRKEILACSDL [YOR392W C-terminal 12 aa] | 0.718 ± 0.029 | 0.665 ± 0.04
WDLEQIMSQHGF [PCL1 C-terminal 12 aa] | 0.7397 ± 0.007 | 0.735 ± 0.0046
LNWLIKGILTED [HFI1 C-terminal 12 aa] | 0.753 ± 0.033 | 0.675 ± 0.039
GTLESFFKRKAK [POL32 C-terminal 12 aa] | 0.732 ± 0.015 | 0.707 ± 0.03
EYMIERCRGHVL [YPL108W C-terminal 12 aa] | 0.708 ± 0.032 | 0.753 ± 0.04
VEIFVDKLIDFL [THI80 C-terminal 12 aa] | 0.674 ± 0.014 | 0.656 ± 0.027
ETNFWTAAMEYE [THI22 C-terminal 12 aa] | 0.717 ± 0.011 | 0.701 ± 0.014
VETELEMVAEKA [YEH1 C-terminal 12 aa] | 0.646 ± 0.0079 | 0.665 ± 0.061
SFDVELVGLKFV [YHL019W-A C-terminal 12 aa] | 0.7172 ± 0.005 | 0.695 ± 0.029
LSVEEDRDVQMT [APC5 C-terminal 12 aa] | 0.684 ± 0.013 | 0.729 ± 0.054
KVHRKKVPGCTI [YGR011W C-terminal 12 aa] | 0.697 ± 0.015 | 0.686 ± 0.029
QKRKSRILSFIK [UBP9 C-terminal 12 aa] | 0.7208 ± 0.006 | 0.732 ± 0.047
QLINGRKIIAGN [MOT2 C-terminal 12 aa] | 0.6718 ± 0.0014 | 0.7 ± 0.09
RREATRISDLLK [FMS1 C-terminal 12 aa] | 0.695 ± 0.014 | 0.703 ± 0.06
GTKEYCKMIDFL [YLR108C C-terminal 12 aa] | 0.704 ± 0.014 | 0.688 ± 0.019
IYYMEQMLGKTQ [HSK3 C-terminal 12 aa] | 0.696 ± 0.038 | 0.696 ± 0.024
LQKFYLQVSTIS [YFR054C C-terminal 12 aa] | 0.456 ± 0.0082 | 0.456 ± 0.0082
NVFNPDQPRMGP [YLR154W-A C-terminal 12 aa] | 0.711 ± 0.017 | 0.711 ± 0.018
ERINFVCETYGL [AIM14 C-terminal 12 aa] | 0.7 ± 0.018 | 0.7 ± 0.027
ANLVYMKADVFC [HTD2 C-terminal 12 aa] | 0.581 ± 0.012 | 0.61 ± 0.066
ISIEELAQYLKK [RIB3 C-terminal 12 aa] | 0.70628 ± 0.00065 | 0.672 ± 0.049

Sequence | protein stability index [1] | protein stability index (genetic background: wild type)
YQGVIYGIDGDQ [POP2 C-terminal 12 aa] | 0.699 ± 0.012 | 0.689 ± 0.041
RSRKWKRRLFHL [PEX32 C-terminal 12 aa] | 0.825 ± 0.038 | 0.6 ± 0.12
IQKDSMVHPGKK [VAC7 C-terminal 12 aa] | 0.6694 ± 0.0052 | 0.663 ± 0.034
TEKDSTTTNYRK [YJL218W C-terminal 12 aa] | 0.702 ± 0.028 | 0.698 ± 0.034
APHVLNDLLLKF [PGA1 C-terminal 12 aa] | 0.7108 ± 0.0037 | 0.666 ± 0.017
LLQSGRYGGNRS [RCI37 C-terminal 12 aa] | 0.683 ± 0.011 | 0.663 ± 0.021
GEVVKTIIFGPE [SOR1 C-terminal 12 aa] | 0.7 ± 0.017 | 0.696 ± 0.029
DASVEQNILAVL [RQT4 C-terminal 12 aa] | 0.70427 ± 0.00032 | 0.6904 ± 0.0037
DDYAQYLDQDSD [MAK21 C-terminal 12 aa] | 0.7147 ± 0.004 | 0.671 ± 0.011
TVPEFPAPIFPN [YDL159C-B C-terminal 12 aa] | 0.72 ± 0.019 | 0.689 ± 0.0079
GSLLLGLISFLL [EGT2 C-terminal 12 aa] | 0.669 ± 0.0091 | 0.6486 ± 0.0054
PGTRGRVASKFL [MIM1 C-terminal 12 aa] | 0.7098 ± 0.0037 | 0.705 ± 0.0099
RFLDYVRELESF [PDX1 C-terminal 12 aa] | 0.698 ± 0.014 | 0.70618 ± 0.0004
IQQTNSFLREII [YDL211C C-terminal 12 aa] | 0.692 ± 0.0098 | 0.7056 ± 0.0041
RDNQIPDKEIGI [CAF16 C-terminal 12 aa] | 0.6731 ± 0.0026 | 0.704 ± 0.072
DIRAHLAEYYSF [PAU7 C-terminal 12 aa] | 0.728 ± 0.026 | 0.687 ± 0.011
LKQLDNLKSQLN [ARG4 C-terminal 12 aa] | 0.7 ± 0.013 | 0.6755 ± 0.0019
SQPDYKYLFDTQ [YRM1 C-terminal 12 aa] | 0.71 ± 0.027 | 0.623 ± 0.025
ADETVDFYVYDE [SWD2 C-terminal 12 aa] | 0.744 ± 0.027 | 0.698 ± 0.06
KKYKFKLKFIKN [RNY1 C-terminal 12 aa] | 0.7118 ± 0.006 | 0.642 ± 0.02
